In patent US20230365642A1 (MEDICENNA THERAPEUTICS, published 2023):

Experiments:
[1] = molecular target: T1, IL13Rα Protein, Human, Recombinant, His Tag (human IL13Rα1) (human, UniProt P78552 22-343, limits assumed); test: ELISA, receptor coated on plate, anti-human IgG Fc detection
T1 construct: also called hIL13Rα1; IL13Ra1; not shown: His tag
T1 sequence (looked up): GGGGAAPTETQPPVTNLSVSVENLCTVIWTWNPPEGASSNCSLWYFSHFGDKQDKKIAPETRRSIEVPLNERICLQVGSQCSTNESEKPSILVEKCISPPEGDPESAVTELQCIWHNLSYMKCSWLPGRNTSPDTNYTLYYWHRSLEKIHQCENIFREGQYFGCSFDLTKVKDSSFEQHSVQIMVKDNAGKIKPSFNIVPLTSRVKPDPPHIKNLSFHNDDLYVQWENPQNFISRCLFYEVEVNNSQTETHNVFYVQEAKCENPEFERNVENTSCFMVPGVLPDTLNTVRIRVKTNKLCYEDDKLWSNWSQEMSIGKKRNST

[2] = molecular target: T2, IL13Rα1 Protein, Mouse, Recombinant, His Tag (mouse, UniProt O09030 26-340, limits assumed); test: as above
T2 construct: also called mouse IL13Rα1; mIL13Rα1; not shown: His tag
T2 sequence (looked up): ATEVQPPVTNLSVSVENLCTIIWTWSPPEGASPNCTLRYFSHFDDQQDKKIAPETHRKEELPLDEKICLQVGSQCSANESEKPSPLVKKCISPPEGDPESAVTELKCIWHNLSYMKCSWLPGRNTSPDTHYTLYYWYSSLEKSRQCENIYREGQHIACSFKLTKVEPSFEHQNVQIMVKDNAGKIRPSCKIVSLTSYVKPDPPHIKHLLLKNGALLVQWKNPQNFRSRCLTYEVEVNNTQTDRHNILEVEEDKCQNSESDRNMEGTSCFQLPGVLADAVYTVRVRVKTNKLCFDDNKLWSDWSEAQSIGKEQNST

[3] = molecular target: T3, IL4R Type-II (IL4Rα chain with IL13Rα1), on cells (UniProt P24394 26-825; P78552 22-427, limits assumed); test: cell-based or functional assay
T3 sequence (looked up) 1: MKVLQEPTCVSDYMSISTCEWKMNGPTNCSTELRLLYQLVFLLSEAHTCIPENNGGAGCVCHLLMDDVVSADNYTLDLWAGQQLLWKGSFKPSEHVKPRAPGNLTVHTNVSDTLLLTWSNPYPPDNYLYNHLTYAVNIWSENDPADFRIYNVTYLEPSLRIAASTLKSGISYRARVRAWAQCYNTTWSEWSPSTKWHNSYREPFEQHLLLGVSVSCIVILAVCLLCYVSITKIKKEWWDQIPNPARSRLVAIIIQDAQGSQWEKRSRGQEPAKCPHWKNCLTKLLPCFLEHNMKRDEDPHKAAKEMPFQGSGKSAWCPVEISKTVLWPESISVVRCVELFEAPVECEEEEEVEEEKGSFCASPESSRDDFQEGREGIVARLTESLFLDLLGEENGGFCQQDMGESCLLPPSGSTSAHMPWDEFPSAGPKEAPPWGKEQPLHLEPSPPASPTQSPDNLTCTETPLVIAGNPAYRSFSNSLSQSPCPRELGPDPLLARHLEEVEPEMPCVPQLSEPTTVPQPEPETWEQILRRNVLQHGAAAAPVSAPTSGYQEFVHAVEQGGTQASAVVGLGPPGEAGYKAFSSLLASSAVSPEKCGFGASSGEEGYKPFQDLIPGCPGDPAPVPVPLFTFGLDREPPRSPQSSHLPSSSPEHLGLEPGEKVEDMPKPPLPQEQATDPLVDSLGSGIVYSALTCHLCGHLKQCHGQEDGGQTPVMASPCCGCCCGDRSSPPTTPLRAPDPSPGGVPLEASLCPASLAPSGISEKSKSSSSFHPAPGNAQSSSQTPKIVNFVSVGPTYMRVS
T3 sequence (looked up) 2: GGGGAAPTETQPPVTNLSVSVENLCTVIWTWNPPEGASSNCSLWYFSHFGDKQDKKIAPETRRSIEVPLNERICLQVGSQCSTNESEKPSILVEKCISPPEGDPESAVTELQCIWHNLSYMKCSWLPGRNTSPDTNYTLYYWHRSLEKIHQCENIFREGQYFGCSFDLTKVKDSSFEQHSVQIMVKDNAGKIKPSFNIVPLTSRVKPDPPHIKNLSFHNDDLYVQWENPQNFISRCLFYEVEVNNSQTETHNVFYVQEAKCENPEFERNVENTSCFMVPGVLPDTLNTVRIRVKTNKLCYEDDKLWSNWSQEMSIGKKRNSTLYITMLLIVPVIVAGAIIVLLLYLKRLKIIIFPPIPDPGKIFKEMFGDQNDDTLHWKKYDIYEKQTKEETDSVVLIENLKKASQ

[4] = molecular target: T3, IL4R Type-II (IL4Rα chain with …); test: cell-based or functional assay; remark: listed apart in the source
[5] = molecular target: T3, IL4R Type-II (IL4Rα chain with …); test: cell-based or functional assay; remark: listed apart in the source

B1: Fc4-MDNA413 (1:2) (Fc fusion)
chain: APPCPSCPAPEFLGGPSVFLFPPKPKDTLMISRTPEVTCVVVDVSQEDPEVQFNWYVDGVEVHNAKTKPREEQFNSTYRVVSVLTVLHQDWLNGKEYKCKVSNKGLPSSIEKTISKAKGQPREPQVYTLPPSQEEMTKNQVSLTCLVKGFYPSDIAVEWESNGQPENNYKTTPPVLDSDGSFFLYSRLTVDKSRWQEGNVFSCSVMHEALHNHYTQKSLSLSPGKGGGSGSPGPVPPSTAVRALIEELINITQNQKAPLCNGSMVWSINRTAGMYCAALESLINVSGCSAIEKTQDMLSGFCPHKVSAGQFSSLHVRSSKIEVAQFVKDLLFHLRTLFREGQFN
notes: also called Fc4-MDNA413^R39/Q111 (1:2)
binding result [1]: binds | binding result [2]: binds | IL-4 Mediated M2 polarization CD206 (IC50 nM), second donor [3]: 2.01 nM | IL-4 Mediated M2 polarization CD209 (IC50 nM), first donor [3]: 0.59 nM | IL-4 Mediated M2 polarization CD209 (IC50 nM), second donor [3]: 2.3 nM | IL-13 Mediated M2 polarization CD206 (IC50 nM), first donor [4]: 0.48 nM | IL-13 Mediated M2 polarization CD209 (IC50 nM), first donor [4]: 1.6 nM | IL-13 Mediated M2 polarization CD209 (IC50 nM), second donor [4]: 0.492 nM | IL4 EC50 (nM); IL-4 competitive assay, HEK-Blue IL-4/IL-13 reporter cells [5]: 7.5 nM | IL 13 EC50 (nM); IL-13 competitive assay, HEK-Blue IL-4/IL-13 reporter cells [5]: 37.8 nM
